The assay deals with T1, human CMKLR1 (Chemokine-like receptor 1) (human, UniProt Q99788 1-373).
T1 sequence: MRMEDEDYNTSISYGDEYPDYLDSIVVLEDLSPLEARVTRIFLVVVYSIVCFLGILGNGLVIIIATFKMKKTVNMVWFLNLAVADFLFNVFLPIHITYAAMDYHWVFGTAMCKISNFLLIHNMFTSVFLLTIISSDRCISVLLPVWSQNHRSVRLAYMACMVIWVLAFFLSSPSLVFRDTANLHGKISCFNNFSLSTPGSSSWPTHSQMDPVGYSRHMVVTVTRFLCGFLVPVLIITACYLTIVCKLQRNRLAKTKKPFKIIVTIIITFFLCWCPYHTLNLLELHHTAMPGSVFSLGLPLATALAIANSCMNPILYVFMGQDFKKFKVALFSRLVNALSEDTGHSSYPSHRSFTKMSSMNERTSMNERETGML
The assay is described as follows: cell-based or functional assay.

B1: anti-CMKLR1 antibody clone 2G1 (antibody, V domains shown)
VH: EVQLVASGGGLVQPGGSLKLSCAASGFTFSSYGMSWVRQTPDRRLELVATINRYGGSTYYPDSVKGRFTISRDNAKNTLYLQMSSLKSEDTAMYYCPRLIYYGNEGDSWGQGTTLTVSS
VL: QIVLTQSPAIMSASPGEKVTMTCSASSSVSFMHWYQQKSGTSPKRWIYDTTKLTSGVPARFSGSGSGTFYSLTISSMEAEDAATYYCQQWNSKPPLTFGPGTKLELKR
For B1, the “IC50 (read off the curve) of the partial decrease (about one fifth); 2G1 with chemerin 6 nM (circles), beta-arrestin recruitment, CHO-K1 CMKLR1 cells” value was around 10 nM and the “IC50 (read off the curve) of the partial decrease (about one third); 2G1 with chemerin 2 nM (diamonds), beta-arrestin recruitment, CHO-K1 CMKLR1 cells” value was around 20 nM.
